Laboratory results: US20180002445A1 (published 2018)
Changes are numbered by the printed parent chain.

Legend:
human SOD1 = target: T1, human SOD1 (human, UniProt P00441 2-154); test: heading of the sequence table; ELISA selection
T1 construct: Target of the ELISA by which the clones were selected; also called Cu/ZnSOD; superoxide dismutase

[1] = target: T2, membranous SOD of human tumor cells (MKN-45 gastric carcinoma, SHEP neuroblastoma) (human, UniProt P00441 2-154); test: cell-based or functional assay
T2 sequence (P00441 2-154): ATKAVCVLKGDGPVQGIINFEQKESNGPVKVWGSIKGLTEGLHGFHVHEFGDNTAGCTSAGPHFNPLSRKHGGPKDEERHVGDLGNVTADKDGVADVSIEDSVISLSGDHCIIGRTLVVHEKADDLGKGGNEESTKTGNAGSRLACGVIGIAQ

human catalase = target: T3, human catalase (human, UniProt P04040 2-527); test: heading of the sequence table; ELISA selection
T3 construct: Target of the ELISA by which the clones were selected
T3 sequence (looked up): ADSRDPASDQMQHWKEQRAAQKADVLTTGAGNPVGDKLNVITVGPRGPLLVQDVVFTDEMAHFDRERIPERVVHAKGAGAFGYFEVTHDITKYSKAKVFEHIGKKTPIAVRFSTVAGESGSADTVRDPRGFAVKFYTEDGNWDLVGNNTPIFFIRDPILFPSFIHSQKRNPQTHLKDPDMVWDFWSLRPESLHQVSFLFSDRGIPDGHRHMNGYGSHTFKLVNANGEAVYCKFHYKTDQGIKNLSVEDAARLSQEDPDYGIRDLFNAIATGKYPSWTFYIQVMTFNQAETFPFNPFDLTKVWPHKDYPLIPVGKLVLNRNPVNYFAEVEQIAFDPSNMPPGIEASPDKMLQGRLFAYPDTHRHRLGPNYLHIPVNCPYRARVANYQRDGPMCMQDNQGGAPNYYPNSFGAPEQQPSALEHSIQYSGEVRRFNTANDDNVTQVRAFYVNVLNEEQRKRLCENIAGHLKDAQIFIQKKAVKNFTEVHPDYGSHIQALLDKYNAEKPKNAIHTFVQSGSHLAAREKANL

[2] = target: T4, membranous catalase of human tumor cells (MKN-45 gastric carcinoma, SHEP neuroblastoma) (human, UniProt P04040 2-527); test: cell-based or functional assay
T4 sequence (looked up): T3 sequence (looked up)

[3] = target: T2, membranous SOD of human tumor cells …; test: cell-based or functional assay; remark: listed apart in the source

T1 sequence (P00441 2-154 limits assumed): as the sequence (P00441 2-154) above

B1: aSODcb0987 (VHH)
VHH: QVQLVESGGGIVQPGGSLRLSCVASESISEIDAMYWHRQAPGKERELVAGITNDGTRYYADSVKGRFTISRDNAKSTLYLQMNSLKFEDTAMYYCAALPNPPPGYWGQGTQVTVSS
notes: Recombinant alpaca single domain VHH fragment against human SOD1
binding result (human SOD1): binds

B2: aSODcb0991 (VHH)
VHH: B1 VHH with E30D, E44R, R57E, Y59F, T68A, A74T, T77S, F87L, A97T
concentration required for apoptosis induction in SHEP cells, against the neutralizing single domain VHH fragment [1]: 1e+06 fold

B3: aCATcb0973 (VHH)
VHH: EVQLVESGGGLVQPGGSLRLSCAVSGFIFNTYSMRWGRQAPGKGLEWVSSISTGGYSTYADSVKGRFTISRDNAKNLVYLQMNSLKPEDTAVYYCGWGAFVRGERPQGQGTQVTVSS
notes: Recombinant alpaca single domain VHH fragment against human catalase
binding result (human catalase): binds

B4: aCATcb0972 (VHH)
VHH: QVQLVESGGGLVQAGGSLRLSCAASERTFNTYGMGWFRQAPGKEREFVATISWSGDSTYYADSVKGRFTISRDNAKNTMYLQMNSLKPEDTAVYYCNANSEYGDSYWGQGTQVTVSS
relation (molar basis) (against aCATaSOD) [2]: 1420 fold
relation to opt. conc. hybrid Fab (against aCATaSOD) [2]: 708 fold

B5: aSODcb0989 (VHH)
VHH: QVQLVESGGGLVQSGGSLTLSCTASGFTISNYPMTWVRQAPGKGLEWVSRINSGGDRTLYADSVKGRFTVSRDNARNTMYLQMNNLKPEDTGLYFCADSGAGWRYWGQGTQVTVSS
relation (molar basis) (against aCATaSOD) [3]: 2920 fold
relation to opt. conc. hybrid Fab (against aCATaSOD) [3]: 1460 fold

B6: aCATcb0974 (VHH)
VHH: QVQLVESGGGLVQPGGSLRLSCAASGSIFSIASMGWYRQAPGKQRDLVATITSDGSTKYADSVKGRFTISRDNAKNTMYLQMNSVKPEDAAVYYCNADADDLEPGSYDYDYWGQGTQVTVSS
notes: Recombinant alpaca single domain VHH fragment against human catalase; also called aCATcb9074
binding result (human catalase): binds

B7: aCATcb0975 (VHH)
VHH: QVQLVESGGGLVQPGGSLRLSCAASASIFSIYVMAWYRQAPGKQRELVATVTSGGATNYANSVKGRFTISRDNAKNTMDLQMNSLKPEDTAVYYCNAEDYYDYGLSRSKIYWGQGTQVTVSS
notes: as for B3
binding result (human catalase): binds
